Literature values as cited in article PMC4065351.

System: Cys2 (position 2, ----ECG----)
Details: free reduced glutathione

For “Glutathione (GSH, gamma-L-glutamyl-L-cysteinylglycine) (not applicable (ubiquitous low-molecular-weight thiol))”, the pKa is listed as 8.93.
